From a protein production outcome set (Wang et al. 2014)

Experiment: label from the status in PepcDB records

Sequence: MNWQLKSKEAEVMNKLSLFLGCIVPNRYPGIEKATKLCLQRLEIDACDLPGASCCPAPGVFKSFDKATWLALASRNIVLSERMERDVLTVCNGCYGSLADANMELKKDPEMKACTNSCLKEIGMEFRGTSEIRHIIEFLYKEFGPEKLKEYITTPLDLKVALHYGCHLIKPSKDRNLGDTESPVFFDELVEATGAKSVDYTDKMMCCGAGGGVRSGYADESLEMLEHKLDCICKAGVDCIVNACPFCHLQFDRGQIAVNEKFGTDYSIPVLHYSQLLGLALGFSPDQLGIEQNAVQNIEFLAKIYEISAGLS
- protein production: failed

Sequence: MRCLRHARRQSQGVRGGRGMARADRGDGDGDAEAEDGRHSTASDARLTQLLRTDTATAYPALRELRTRHRPAVLGYARLCTVDDAAARRLTAQAFALAARDTARGSDPRGPWRHQLLLLAGRVAASWAADERAARLDPDLLAHLGAAGSRAQVPPLLAAFQSLPSRVQGVVWYAVVEGEPDDRTADFVGLTREDVTYGTEPAFQSLRQSCLTTRLAASDDPRCQDFRRLIEESVRPDNPRYSADLHAHMVHCVYCATAYDELSALRDDPRTALAAGLLAWGGAAYVTGGAVTRRAVAGGPGPSGPGPGDPGPGPAPGWWPSRRFVLASTALGVALIPFLAYLLVSGGPEPERAANAVATPSRPPAVTVTATVSATPSPSPSHTAGKSPKPSRSPSASKTTRPPSPKPSPKPPAPHPPNGSFAQVVNADSGLCLDIRDGVMDLGTDVVTAPCTSSRTQRWRVDTARGVLQSSEDPDFCLDSRGSTDRGVGIWECGAVYGRNGRNLRFTVDAQGVIRPAVAPDHAVTPYGDALFLVPAEGRAAQRWRAGAA
- protein production: failed

Sequence: EQTTAADLPLTLAIAREVGNLLLTDSLLAETNRHLNQLNALLESMDDGVISWDEQGNLQFINAQAARVLRLDATASQGRAITELLTLPAVLQQAIKLAHPLKHVEATFESQHQFIDAVITLKPIIETQGTSFILLLHP
- protein production: failed

Sequence: EHGLLVHKAVDKWTTEEVVLWLEQLGPWASLYRDRFLSERVNGRLLLTLTEEEFSRAPYTIENSSHRRVILTELERVR
- protein production: not failed

Sequence: MTAADPGTRIVRWALVAGAVAGLLAVMAGAFGAHGLRHVVSERGLEVFQTAVSYQMYHALALVAVSLMPALGLSGNLLTLACGFWLAGMMLFSGSLYLLVLTGIHWLGPVTPVGGVCFMVGWVLLIVAALKK
- protein production: failed

Sequence: MPRLPRPPGSSTLRPGAVALGRPDPGPDLNSPEGLIRAARDWLGAGDDQRARLALDRALALRPRAAEALLLRGLVDQRRGDLAAAAEWFRRAIRARKDFADAHLNLGSCLIGLGQTEEALRQFGRAVALAPGMALAHLNLAQALLDQGDLGRARSAIDRARALAPDALPILLARARILAAQEDYEAAGAAWEDCVARAPGDVLVLNDAANFLLEDNRVEDSLALYRRAVALAPTSQEVRKNLIRALMTTGALDEAEAEAVGWLGTQGEDPRFRRLLGDVLVRAGRFPEARSAYVAAWDALPEDDNIPLGLTATGKMKSGEALGDRILERWTAQGAAGVVSADIAYAAGKVLDDRQDYDGAFAAFAQANRLKAADHPFDADAHDRFVEAVSTVFTPALFERFAGLGSPSETPVLVVGLPRSGTTLVEQIIASHPQAAGAGELTHVSRFEHSLPWRVGEAGRRGYPACVAGLDGAILDRFTAHYLHELTRIGPKARRVVDKLPNNFLRLGLFALAFPKARIIHCRRDLVDTCLSLYFQSFAGGHEYRHDLVSLGRYARAYLAMMAHWRRVLPLPMLEVDYADVVADQEKASRTMLEFLGLAWDEVVLRFHKREATVATASRWQVRQPIYATSVARWRRYEQHLSPLLLSLEGKKPSKG
- protein production: failed

Sequence: MSLSVAIIGPGAVGTTIAYELQQSLPHTTLIGRHAKTITYYTVPHAPAQDIVVKGYEDVTNTFDVIIIAVKTHQLDAVIPHLTYLAHEDTLIILAQNGYGQLEHIPFKNVCQAVVYISGQKKGDVVTHFRDYQLRIQDNALTRQFRDLVQDSQIDIVLEANIQQAIWYKLLVNLGINSITALGRQTVAIMHNPEIRILCRQLLLDGCRVAQAEGLNFSEQTVDTIMTIYQGYPDEMGTSMYYDIVHQQPLEVEAIQGFIYRRAREHNLDTPYLDTIYSFLRAYQQNEGHHHHHH
- protein production: not failed

Sequence: MLTVDQLALLFVLLLGAVVSVPVGDRFGLPAPVLMTLLGIGLAVADFVPNVDIPPDLILPALLPPLLYAAVRRTSWRQFTANKRPIFLLAVALVFVTTAVVALVAGAIVPGLPIAAAVALGALVAPPDPVAATAVAGQLGLPRRLVSILEGEGLFNDVTAIVLYHVAIAAAVSGTFSLPNAVLDLVLSAVVAVAVGLALGWAANRLMDLLDDVTLQIGLTLLVPYASYVLAEELHGSGVLAVLTTALFLAEYATDADDVMTRLAGHTFWNVVDTLVTGVAFGLIGLELHNALRTASGRWGEMLGWAAAIVAVVVLVRLAYLLPATWLTKRLHAKRDYDEEIPTSWRETVVMWWAGMRGVASAALALAIPLKMDDGSPFPDRDEIVFIAFGVIMGTLVLQGLTLPWLVKRLGVRADTGSEKAFEKALAIRAAKAAKRRLREIEDVEELPEELSEQLLRRAFDIGARISPDLGDEERREAHEQRVRRMKRVRRIQGEMMSAARHEVLAARSEPGADPEIVDRVLRHLDVRSLR
- protein production: failed

Sequence: MGRLSGKTILVTGAASGIGRAALDLFAREGASLVAVDREERLLAEAVAALEAEAIAVVADVSDPKAVEAVFAEALEEFGRLHGVAHFAGVAHSALSWNLPLEAWEKVLRVNLTGSFLVARKAGEVLEEGGSLVLTGSVAGLGAFGLAHYAAGKLGVVGLARTLALELARKGVRVNVLLPGLIQTPMTAGLPPWAWEQEVGASPLGRAGRPEEVAQAALFLLSEESAYITGQALYVDGGRSIVGPPGLPPGFGPKGGERHAHVL
- protein production: not failed

Sequence: MARILKKNKNELLDILEDYMTDCKYRDLRRTTIRAYEQSLRLLFKFLEDDYKVIYVEDVKEEHIRNYIDFTKERGKYSYVANENNINSNVPQNRGDFGKKVSLCTLDNYLGNIKMFFTWCKDNKLISKDPSFKIKRIKYSRKAKAEITIDEFNKLLKSLDLTLFSEYRDYIVIQLLMDTGMRVGECLELREEDIDIRNKTIFISGEIAKGRRDRYVFFSNTMQRMLQKWLNYKDRYVESNYIFVTNRGGKYQVHSFEKHMRNYLKKAKIDKQITPHTLRNNFAKRFLMSGGDIYTLSRLLGHSDIRTTQSAYLDLTTSDIRKNYLKFSPLENMKKKNW
- protein production: failed

Sequence: MNSKNTICLWYDSAALEAATFYAETFPDSAVLAVHRAPGDYPSGKEGDVLTVEFRVMGIPCLGLNGGPAFRHSEAFSFQVATDDQAETDRLWNAIVDNGGEESACGWCRDKWGISWQITPRVLSEAIASPDRAAARRAFEAMMTMGRIDIATIEKAFKG
- protein production: not failed

Sequence: MIGLNTAAIYVLQTLGSLYLLIILLRFVLQLVRANFYNPLCQFIVRATQPLLKPLRRIIPSLFGLDMSSLVLAIIVQMILMALTLLLMFGTTGDPLHLLLWSIIGVTALFLKIFFFALIISVILSWVAPGSHNPGAELVNQICEPALAPFRKIVPNLGGLDISPILAFLVLKLLDMLVINNLAAMSNMPDVLRLLM
- protein production: failed

Sequence: MEDLLVVGQIINTHGLRGEMKVMPLTEDMRRFDYLEYVILKGKKVKVEGVKYFKDKVILKLEGINSIEEAEKLKRTYLEIEREDAIELEEDEYFIVDLVGCTVVDTEGFEYGKIKDVIQTPSNDVYWVQGKKEVLVPVLKDIVLDINMDEKLITIRPSGEWQYEDLEHHHHHH
- protein production: failed

Sequence: MLTEVSDTRIAHKKFGLFYPSVSRPSIFVEGEDRKNFLQGIASQDILKQDEKSLSYSFFLNPKARILFDAWCGNFEDKIALFPPAGTREEFVNHLKKYLFFRTKAKITDMSDHFREIRLVGPETISVLLSLFDNNFSGSSFRMLKNGGYVLIHPTSFQHNLDVGLQADLFIPIDQFETTQKSLEDFTSNKGGVLLDESSYLAYLTEKGIPLFPSELNDSFFPAEAGLDSVGVSYNKGCYVGQEPVTRLKFQGHLNRSLAGFRLEGGPFPKMEFPVTLFNPKDGNEAGILTRTSSSDILGSGIGLGYIKRNFSENGTELLLPDAQLVRVHSLPFV
- protein production: not failed

Sequence: MTFEEFKDRLFALAKKNGVEVQISFLETREFSLRLANGDLDQYTDAGKFNVEIKVLKDGKTGTFRTQVLENPEKCFEEALSNLQVKDSEEKEYFFEGGKEYREMETYVGRFEKLSVKEKMDMAKKAHESAAKDERVVMVPTVMYKDMVIKKIITNTLGLDVESQMDGGFLFAMAIARDANPRSGSWYELARTPEDLNPEEIGKRAAEEAISLIGSKTIPSGKYPVLMRNTALLDLMEMFIPMISAENVQKNLSPLKGKLGEQVGNPAVSIKDLPYHPKGLSSTPFDDEGVPTTEKFVLENGVLKTFLHNLKTARKEGVEPTGNGFVGGIRPVNLMLMPGEKSFEELLKEMDRGVVITEVEGMHAGANSISGEFSLFAKGYWVENGEIAHGVEDITISGNFLDLLRKIVLVGNDVKVSQHTIAPSVLVEVLDVAGK
- protein production: not failed

Sequence: MAEEHRCETPEGHRLCVNNCGFFGSSATMNLCSNCYGDLCLKQQQQASMKSTVESSLSPVIAPVLENYAAELEIPTTKKTEEKKPIQIPTEQPSPPQRPNRCTVCRKRVGLTGFMCRCGTTFCGSHRYPEVHGCTFDFKSAGREEIAKANPLVIAAKLQKI
- protein production: failed

Sequence: DNKKIILEFSSPNTNKPLHVGHLRNDVIGESLSRILKAVGAKITKINLINDRGVHICKSMLAYKKFGNGITPEKAFKKGDHLIGDFYVKYNKYSQENENAEKEIQDLLLLWEQKDVSTIELWKKLNKWAIEGIKETYEITNTSFDKIYLESEIFKIGKNVVLEGLEKGFCYKREDGAICIDLPSDSDEKADTKVKQKVLIRSNGTSIYLTQDLGNIAVRTKEFNFEEMIYVVGSEQIQHFKSLFFVAEKLGLSKNKKLIHLSHGMVNLVDGKMKSREGNVIDADNLISNLIELIIPEMTQKIENKESAKKNALNIALGAIHYYLLKSAIHKDIVFNKKESLSFTGNSGPYIQYV
- protein production: failed

Sequence: MNDPMGETGFSRESAPEIVFSETDMAAAEQLMHLSEEETVSCSSSTGGDCGGGGGDKIKHEYVSSRIGNELNDGVRGNSILGVEKKRKRTVMKEKKFRSLESIYKGTKEIRD
- protein production: failed

Sequence: MDTLPHHLLDEILFRIDHRSLAMIQCTNRSLQSHISKTPNFASEYFSRIRSSLLYIATHGCPLICYHLYGDSRSPRTVETLTQCHILGYCSGLLLLFLNKNLCVANPLTKKFRFLNHSRSKFFPTDFTLRGGRQQVIGFAVDQTDRTTPSFKIVNIKEGAVHWLRNDGSIVAFNLKTEKARLIPIRFPKELCLKTLFTAVDNNLTLISATEEVIYVYAFHNILSDPKWVLVKQIRNGVLDEKRLYSWYVEAYDGKSLVLRETILKKDYYNKHLKQVLHGYDLRANKWEVIGSIPEWSPSGLDFYQFTPSPSSVIGLDDKEGEEILACDDKRIPSVNAIMRLIYGIS
- protein production: failed

Sequence: MPHPATMFFLFTLAVIFLSWIFDIYGLRVQLPQTGAEIRVQSLLSPEGIRWMLRNAITNFTGFAPLGMVLIAMFGIGVAQHSGFIDACVRQGVKNRKNTKRIILWVIILGLLSNIVGDAGYIILLPIAATLFYSVGLNPVAGIITAYVSVSCGYSANVVLSTMDPLIARTTQEAAIDSGVYQGNTGPLCNYYFMSVSTFVIGAIIYRITCKRLIPSLGQYEGKQIFEGYKQLSRKERRAMTMAIVMGMLYAAIILWATFSSWGILRGVNGGLIRSPFIMGILFLLSLGAAIMGMVYGFSSGRYRSDNDVIEGLAQPMKLLGGYLVIAFFAAQMFACLEYSHLDKCVAIIGANLLSSVQADPLWTLILFILFTATINLIMVSATAKWAFMAFIFVPVFARMGIEPDMTQCAFRIGDSATNAITPFMFYMPLVLTYMQQYDKQATYGSLLKYTWRYSVYILIGWTMLLFIWYLTGLPLGL
- protein production: failed

Sequence: MSDLKSLATKFASDHESGKLLVLPTVWDTWSAGLVEEAGFSGLTIGSHPVADATGSSDGENMNFADYMAVVKKITSAVSIPVSVDVESGYGLSPADLIAQILEAGAVGINVEDVVHSEGKRVREAQEHADYIAAARQAADVAGVDVVINGRTDAVKLGADVFEDPMVEAIKRIKLMEQAGARSVYPVGLSTAEQVERLVDAVSVPVNITAHPVDGHGAGDLATLAGLGVRRVTFGPLWQKWLAATSAQQLKGWA
- protein production: not failed
